Test results as given in US20240425575A1 (SOTER BIOPHARMA PTE, published 2024).

T1: recombinant human ANG2 protein corresponding to Lys275-Phe496 of human ANG2 (human, UniProt O15123 275-496)
T1 construct: also called hANG2
T1 sequence: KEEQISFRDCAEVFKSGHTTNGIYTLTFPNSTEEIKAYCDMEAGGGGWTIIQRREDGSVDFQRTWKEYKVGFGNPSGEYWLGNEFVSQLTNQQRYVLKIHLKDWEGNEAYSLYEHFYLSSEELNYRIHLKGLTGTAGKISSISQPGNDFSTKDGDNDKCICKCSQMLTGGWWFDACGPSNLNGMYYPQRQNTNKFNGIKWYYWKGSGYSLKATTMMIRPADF


These binders were tested against T1, recombinant human ANG2 protein … (assay: ELISA, hANG2 coated, E. coli supernatant, anti-VHH-HRP).
Description: Single colonies of TG1 host strains of the obtained ten strains of heavy-chain single-domain antibodies were selected, inoculated and cultured overnight. On the next day, the overnight strains were transferred, amplified, induced by 0.5 mM IPTG and cultured in a shaker overnight at 37° C. On the next day, centrifugation was performed to collect supernatant for detection.
An ELISA plate was separately coated with an hANG2 protein solution and BSA in […] and placed overnight at 4° C. Supernatant was discarded, and 300 μL blocking solution (PBS containing 3% BSA) was added to each well and blocked for 2 h at 37° C. Supernatant collected after centrifugation was added to wells of the ELISA plate in 200 μL per well and subjected to standing incubation for 2 h at room temperature, and supernatant was discarded. Washing was performed with PBST (PBS contained 0.1% Tween 20) in 200 μL/well three times. Diluted HRP-labeled anti-VHH secondary antibodies (Genscript, A01861) were added in a volume of 100 μL/well and incubated for 1 h at room temperature, wherein the secondary antibodies were used after dilution according to 1:10000 with a diluent of PBS containing 1% BSA. Washing was performed with PBST in 200 μL/well five times. A TMB color developing solution (BD, 55214) was added in 100 μL/well, and color developing was performed for 8 min at 37° C.2M HCl stopping solution was added in 100 μL/well. After the stopping solution was added, values at 450 nm were read with a microplate reader within 30 minutes.

| Binder | OD Value Obtained after Binding to hANG2 |
| --- | --- |
| B1-G8 (VHH, Tested as E. coli TG1 culture supernatant (phagemid pComb3XSS); also called anti-ANG2 heavy-chain single-domain antibody B1-G8) VHH: QVQLVESGGGLVQTGDSLRLSCVAPGISFSNRGMAWYRQAPGKQRELVAAIDSAGSQRYAGSVKDRFTISRDNAKNTVFLQMNSLKPEDTAVYYCNQPRFNLWGQGTQVTVSS | 2.02 OD 450 nm |
| B4-C11 (VHH, Tested as E. coli TG1 culture supernatant (phagemid pComb3XSS); also called anti-ANG2 heavy-chain single-domain antibody B4-C11) VHH: QVQLVESGGGLVQAGGSLRLSCAASGSTFSNVVAGWYRQAPGKQRELVAGISNIGDTRYADSVKGRFTISRDNAKKAVYLQMNSLKPEDTAVYYCYAKYWARDYWGQGTQVTVSS | 1.58 OD 450 nm |
| B1-H9 (VHH, Tested as E. coli TG1 culture supernatant (phagemid pComb3XSS); also called anti-ANG2 heavy-chain single-domain antibody B1-H9) VHH: EVQLVESGGDLVQAGGSLRLSCAASGSTFSSTIAGWYRQAPGKQRELVAGISNIGDTRYADSVKGRFTISRDNAKKTVYLQMNSLKPEDTAVYYCYAKYWARDYWGQGTQVTVSS | 1.5 OD 450 nm |
| B3-H7 (VHH, Tested as E. coli TG1 culture supernatant (phagemid pComb3XSS); also called anti-ANG2 heavy-chain single-domain antibody B3-H7) VHH: EVQVVESGGGLVQAGGSLRLSCAASGSTAINSVAGWYRQAPGKQRELVAGISNIGDTRYADSVKGRFTISRDNAKKTVYLQMNSLKSEDTAVYYCYAKYWARDYWGQGTQVTVSS | 1.82 OD 450 nm |
| B3-C11 (VHH, Tested as E. coli TG1 culture supernatant (phagemid pComb3XSS); also called anti-ANG2 heavy-chain single-domain antibody B3-C11) VHH: EVQLVESGGGLVQAGGSLRLSCFVSGSTFSASLMGWYRQAPGKERELVAGISNIGNTVYADSAKGRFTISRDGAKNTVHLQMNALKPEDTAVYYCYATVPRAAWGQGTQVTVSS | 1.63 OD 450 nm |
| B2-A6 (VHH, Tested as E. coli TG1 culture supernatant (phagemid pComb3XSS); also called anti-ANG2 heavy-chain single-domain antibody B2-A6) VHH: QLQLVESGGGLVQAGGSLRLSCFVSGSTFSASLMGWYRQAPGKERELVAGISNIGNTVYADSAKGRFTISRDGAKNTVHLQMNALKPEDTAVYYCYATVPRAAWGQGTQVTVSS | 2.39 OD 450 nm |
| B1-G3 (VHH, Tested as E. coli TG1 culture supernatant (phagemid pComb3XSS); also called anti-ANG2 heavy-chain single-domain antibody B1-G3) VHH: EVQVVESGGGLVQPGGSLRLSCVASMPSGISFSNRGMAWYRQAPGKQRELVAAIDSAGSTRYQDSVKGRFTISRDNAKNTVFLQMNSLKPEDTAVYYCNQPAFKAWGQGTQVTVSS | 1.57 OD 450 nm |
| B4-D3 (VHH, Tested as E. coli TG1 culture supernatant; also called anti-ANG2 heavy-chain single-domain antibody B4-D3) VHH: QLQLVESGGGLVQPGGSLRLSCVASGASGISFSNRGMAWYRQAPGKQRELVAAIDSAGSPAYAGSVKGRFTISRDNAKNTVFLQMNSLKPEDTAVYYCNQPRFNLWGLGTQVTVSS | 1.68 OD 450 nm |
| B2-E2 (VHH, Tested as E. coli TG1 culture supernatant (phagemid pComb3XSS); also called anti-ANG2 heavy-chain single-domain antibody B2-E2) VHH: EVQLVESGGGLVQPGESLRLSCVASGFPSGFTFSDYQMYWYRQAPGKERELVAIISNDGLRKTYADSVKGRFTISRDNAKNTMFLQMNSLKPEDTAVYVCNVRRANRDDWGQGTQVTVSS | 1.96 OD 450 nm |
| B2-F10 (VHH, Tested as E. coli TG1 culture supernatant (phagemid pComb3XSS); also called anti-ANG2 heavy-chain single-domain antibody B2-F10) VHH: QVQLVESGGGLVQAGGSLRLSCGASGSAVSITLMAWYRQAPGKQRELVAGISNIGDTNYVDSVKDRFTISRINAKNAMYLQMNSLKPEDTAVYYCFAQDWGGHHYWGQGTQVTVSS | 2.06 OD 450 nm |
